Values quoted from earlier work, collected in patent publication US20070264667A1, “Method and system for assaying transferase activity” (priority 2003, published 2007).

Tests used:
IRK = IRK (Homo sapiens, UniProt P06213); conditions: competitive inhibitor of IRK; ref (20); read-out: reported Km
EGF receptor kinase = EGF receptor kinase (Homo sapiens, UniProt P00533); conditions: ref (22)
Sequence of EGF receptor kinase (P00533 25-1210): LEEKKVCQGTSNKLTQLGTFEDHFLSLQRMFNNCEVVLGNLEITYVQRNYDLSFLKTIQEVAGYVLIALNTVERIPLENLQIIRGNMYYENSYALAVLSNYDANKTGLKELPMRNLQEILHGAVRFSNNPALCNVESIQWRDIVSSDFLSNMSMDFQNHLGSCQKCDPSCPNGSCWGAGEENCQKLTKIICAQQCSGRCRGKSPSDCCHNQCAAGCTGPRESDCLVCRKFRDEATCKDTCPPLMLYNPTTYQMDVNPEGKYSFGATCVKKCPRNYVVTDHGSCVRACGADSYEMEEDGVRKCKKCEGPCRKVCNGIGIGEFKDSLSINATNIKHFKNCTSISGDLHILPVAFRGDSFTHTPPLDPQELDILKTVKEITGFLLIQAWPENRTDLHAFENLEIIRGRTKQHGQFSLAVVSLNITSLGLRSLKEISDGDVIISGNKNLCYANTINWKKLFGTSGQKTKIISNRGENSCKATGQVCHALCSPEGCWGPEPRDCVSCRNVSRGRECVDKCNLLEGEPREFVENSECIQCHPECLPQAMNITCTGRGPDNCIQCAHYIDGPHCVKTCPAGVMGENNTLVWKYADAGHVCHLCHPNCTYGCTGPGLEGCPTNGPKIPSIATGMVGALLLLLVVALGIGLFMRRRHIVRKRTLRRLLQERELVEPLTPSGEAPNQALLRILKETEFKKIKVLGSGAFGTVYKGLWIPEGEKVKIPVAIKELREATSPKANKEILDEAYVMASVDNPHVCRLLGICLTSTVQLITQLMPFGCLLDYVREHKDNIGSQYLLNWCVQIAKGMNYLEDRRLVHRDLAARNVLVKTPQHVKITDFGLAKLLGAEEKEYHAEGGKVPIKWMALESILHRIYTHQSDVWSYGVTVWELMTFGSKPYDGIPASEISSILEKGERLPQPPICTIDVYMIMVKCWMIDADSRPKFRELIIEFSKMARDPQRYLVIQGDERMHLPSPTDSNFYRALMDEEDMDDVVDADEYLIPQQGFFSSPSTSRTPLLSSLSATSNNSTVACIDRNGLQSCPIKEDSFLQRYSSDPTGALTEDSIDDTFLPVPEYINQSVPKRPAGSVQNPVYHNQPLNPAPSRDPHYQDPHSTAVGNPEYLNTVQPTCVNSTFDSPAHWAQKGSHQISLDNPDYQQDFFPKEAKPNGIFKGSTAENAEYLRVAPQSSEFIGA

| Km (IRK) [µM] | Ki (EGF receptor kinase) [µM] | Compound |
| --- | --- | --- |
| ~24 |  | 1RS727: peptide inhibitor of IRK with the sequence KKKLPATGDYMNMSPVGD |
|  | 0.011 | O=C(O)c1cc(N(Cc2ccccc2O)Cc2cc(O)ccc2O)ccc1O [Lavendustin A] |
